In US20190338048A1:
Where two headings read alike, the source gives them in different places.

Key:
[1] = molecular target: Recombinant human IL-17A (human) (UniProt Q16552); test: SPR
[2] = molecular target: Recombinant human IL-17A (human) (UniProt Q16552); test: SPR, ProteOn XPR36
[3] = molecular target: Recombinant human IL-17A (human) (UniProt Q16552); test: SPR as for KD
[4] = molecular target: Pertuzumab kappa light chain V133D (L2), N-terminal HA tag; test: LCCA, SPR of light chain tags
[5] = molecular target: Pertuzumab kappa light chain V133D (L2), N-terminal HA tag; test: LCCA, SPR of light chain tags; remark: listed apart in the source
[6] = molecular target: Recombinant HER2 protein (HER2-ECD) (UniProt P04626); test: SPR
[7] = molecular target: Recombinant HER2 protein (HER2-ECD) (UniProt P04626); test: SPR as for KD
[8] = molecular target: Recombinant HER2 protein (HER2-ECD) (UniProt P04626); test: SPR, ProteOn XPR36

CAT-2200 Fab heterodimer (H1L1) with H1 K145T_V177D_S188D and L1 S176K_Y178K
Kd [1]: 0.27 nM

CAT-2200 Fab heterodimer (H1L1) with H1 K145T_V177D_S188D and L1 S176K_Y178R
Kd [1]: 0.27 nM

CAT-2200 Fab heterodimer (H1L1) with H1 L143K and L1 K129T_V133D
Change in KD of H1L1 Fab vs wild type, -(log(KD design)-log(KD wt)) [1]: 0.03 | Kd [1]: 0.26 nM

CAT-2200 Fab heterodimer H1 L143E_K145T_Q179E / L1 E124Q_T131R
Change in KD of H1L1 Fab vs wild type [1]: -0.03 | Kd [1]: 0.29 nM

CAT-2200 Fab heterodimer H1 L143K / L1 K129T_V133D
Change in KD of H1L1 Fab vs wild type [1]: 0.03 | Kd [1]: 0.26 nM

CAT-2200 Fab heterodimer H1L1 of design 10652-10755 (H1 L143E_K145T, L1 E124R)
Kd [1]: 0.28 nM

CAT-2200 Fab heterodimer H1L1 with H1 F174G and L1 T116F_S176F
Change in KD of H1L1 Fab vs wild type [1]: 0.08 | Kd [1]: 0.23 nM

CAT-2200 Fab heterodimer H1L1 with H1 K145T_S188E and L1 Y178K
Change in KD of H1L1 Fab vs wild type [1]: -0.1 | Kd [1]: 0.34 nM

CAT-2200 Fab heterodimer H1L1 with H1 K145T_V177D_S188D and L1 S176K_Y178K
Change in KD of H1L1 Fab vs wild type [1]: 0 | Kd [1]: 0.27 nM

CAT-2200 Fab heterodimer H1L1 with H1 K145T_V177D_S188D and L1 S176K_Y178R
Change in KD of H1L1 Fab vs wild type, -(log(KD design)-log(KD wt)) [2]: 0.01 | Kd [2]: 0.27 nM

CAT-2200 Fab heterodimer H1L1 with H1 K145T_V177T_S188E and L1 Y178K
Change in KD of H1L1 Fab vs wild type, -(log(KD design)-log(KD wt)) [2]: 0.11 | Kd [2]: 0.21 nM

CAT-2200 Fab heterodimer H1L1 with H1 L143D_K145T and L1 E124Q_T131K
Change in KD of H1L1 Fab vs wild type [1]: 0.1 | Kd [1]: 0.22 nM

CAT-2200 Fab heterodimer H1L1 with H1 L143D_K145T and L1 E124Q_T131K_V133S
Change in KD of H1L1 Fab vs wild type [1]: -0.08 | Kd [1]: 0.33 nM

CAT-2200 Fab heterodimer H1L1 with H1 L143D_K145T and L1 E124Q_T131R
Change in KD of H1L1 Fab vs wild type [1]: -0.1 | Kd [1]: 0.35 nM

CAT-2200 Fab heterodimer H1L1 with H1 L143E_K145T_Q179E and L1 E124Q_T131R
Change in KD of H1L1 Fab vs wild type, -(log(KD design)-log(KD wt)) [1]: -0.03 | Kd [1]: 0.29 nM

CAT-2200 Fab heterodimer H1L1 with H1 S186R and L1 K129T_S180E
Change in KD of H1L1 Fab vs wild type, -(log(KD design)-log(KD wt)) [1]: 0.03 | Kd [1]: 0.26 nM

CAT-2200 Fab heterodimer H1L1 with H1 V177I_S188K and L1 V133L_S176D_Y178E (Kabat)
Kd [1]: 0.22 nM

CAT-2200 Fab heterodimer H1L1 without pairing substitutions (H1L1 of Mab design sets 10771-11335 and 10771-11360)
Change in KD of H1L1 Fab vs wild type, -(log(KD design)-log(KD wt)) [1]: 0

CAT-2200 Fab heterodimer H1L1 without pairing substitutions (wild-type H1 and L1)
Change in KD of H1L1 Fab vs wild type, -(log(KD design)-log(KD wt)) [1]: 0

CAT-2200 Fab heterodimer, H1 S186R / L1 K129T_S180E
Change in KD of H1L1 Fab vs wild type, -(log(KD design)-log(KD wt)) [1]: -0.088 | Kd [1]: 0.26 nM

CAT-2200 Fab heterodimer, H1 S188K / L1 S176E_Y178E
Change in KD of H1L1 Fab vs wild type, -(log(KD design)-log(KD wt)) [1]: -0.24 | Kd [1]: 0.36 nM

CAT-2200 Fab heterodimer, H1 V177I_S188K / L1 V133I_S176D_Y178E
Change in KD of H1L1 Fab vs wild type [1]: 0.08 | Kd [2]: 0.23 nM

CAT-2200 Fab heterodimer, H1 V177I_S188K / L1 V133L_S176D_Y178E
Change in KD of H1L1 Fab vs wild type [1]: 0.08 | Kd [2]: 0.22 nM

CAT-2200 Fab with H1 K145T_S188E and L1 Y178K
Change in KD of H1L1 Fab vs wild type [1]: -0.22 | Kd [1]: 0.34 nM

CAT-2200 Fab, H1 A125R_S186R / L1 S122D_K129T_S180E
Change in KD of H1L1 Fab vs wild type, -(log(KD design)-log(KD wt)) [1]: -0.0041 log(KD) | Kd [1]: 0.21 nM

CAT-2200 Fab, H1 K145T_S188E / L1 Y178K
Change in KD of H1L1 Fab vs wild type [1]: -0.22 | Kd [1]: 0.34 nM

CAT-2200 Fab, H1 K145T_V177T_S188E / L1 Y178K
Change in KD of H1L1 Fab vs wild type, -(log(KD design)-log(KD wt)) [3]: 0.11 log units | Kd [2]: 0.21 nM

CAT-2200 Fab, H1 L124E_V190D / L1 L135K_Y178F
Change in KD of H1L1 Fab vs wild type, -(log(KD design)-log(KD wt)) [3]: -3.56 log units

CAT-2200 Fab, H1 L124E_V190D / L1 V133I_L135K
Change in KD of H1L1 Fab vs wild type, -(log(KD design)-log(KD wt)) [3]: -3.56 log units

CAT-2200 Fab, H1 L124E_V190D / L1 V133I_L135K_Y178F
Change in KD of H1L1 Fab vs wild type, -(log(KD design)-log(KD wt)) [3]: -3.56 log units

CAT-2200 Fab, H1 L143D_K145T / L1 E124Q_T131K
Change in KD of H1L1 Fab vs wild type, -(log(KD design)-log(KD wt)) [3]: 0.1 log units | Kd [2]: 0.22 nM

CAT-2200 Fab, H1 L143D_K145T / L1 E124Q_T131R
Change in KD of H1L1 Fab vs wild type [1]: -0.22 | Kd [1]: 0.35 nM

CAT-2200 designed Fab heterodimer, H1 K145T_S188E / L1 Y178K
Change in KD of H1L1 Fab vs wild type, -(log(KD design)-log(KD wt)) [1]: -0.22 | Kd [1]: 0.34 nM

CAT-2200 designed Fab heterodimer, H1 L143D_K145T / L1 E124Q_T131K_V133S
Change in KD of H1L1 Fab vs wild type, -(log(KD design)-log(KD wt)) [1]: -0.19 | Kd [1]: 0.33 nM

CAT-2200 designed Fab heterodimer, H1 Q179K / L1 K129T_S180E
Change in KD of H1L1 Fab vs wild type, -(log(KD design)-log(KD wt)) [1]: -0.056 | Kd [1]: 0.24 nM

CAT-2200 designed Fab heterodimer, H1 S186R / L1 K129T_S180E
Change in KD of H1L1 Fab vs wild type, -(log(KD design)-log(KD wt)) [1]: -0.088 | Kd [1]: 0.26 nM

CAT-2200 designed Fab, H1 A125R_S186R / L1 S122D_K129T_S180E
Change in KD of H1L1 Fab vs wild type [1]: -0.0041 | Kd [1]: 0.21 nM

Pertuzumab Fab heavy chain L143S_S186K_S188T (H2), ABD2-His6 tagged
H2L2:H2L1 normalized median ratio [4]: 63% | H2L2:H2L1 normalized median scalar value ln(r1/f1) [4]: 0.54 | H2L2:H2L1 normalized median ratio [5]: 64% | H2L2:H2L1 normalized median scalar value ln(r1/f1) [5]: 0.58

Pertuzumab Fab heterodimer, H2 L45P_L143E_K145T_Q179E / L2 P44F_Q124R_T178R
Kd [6]: 5.9 nM

Pertuzumab Fab heterodimer, H2 Q39E_L143E_K145T_Q179E / L2 Q38R_Q124R_T178R
Change in KD of H2L2 Fab vs wild type, -(log(KD design)-log(KD wt)) [6]: 0.023 | Kd [6]: 7.4 nM

Pertuzumab Fab with H2 L45P_L124R_Q179K and L2 P44F_V133G_S176D_T180E
Change in KD of H2L2 Fab vs wild type [6]: 0.065 | Kd [6]: 6.7 nM

Pertuzumab Fab with H2 Q39E_L124R_Q179K and L2 Q38R_V133G_S176D_T180E
Change in KD of H2L2 Fab vs wild type [6]: 0.016 | Kd [6]: 7.5 nM

Pertuzumab Fab, H2 L45P_L143R / L2 P44F_Q124E_V133D
Kd [6]: 5.9 nM

Pertuzumab Fab, H2 L124R / L2 V133G_S176D
Change in KD of H2L2 Fab vs wild type, -(log(KD design)-log(KD wt)) [7]: -0.01 log units | Kd [8]: 8.28 nM

Pertuzumab Fab, H2 L143K / L2 Q124E_V133D
Change in KD of H2L2 Fab vs wild type, -(log(KD design)-log(KD wt)) [7]: 0.04 log units | Kd [8]: 7.41 nM

Pertuzumab Fab, H2 Q39E_L143R / L2 Q38R_Q124E_V133D
Kd [6]: 7.5 nM

Pertuzumab Fab, H2 S186K / L2 V133D
Change in KD of H2L2 Fab vs wild type, -(log(KD design)-log(KD wt)) [7]: 0 log units | Kd [8]: 8.01 nM

Pertuzumab Fab, H2 S188K / L2 S131D_V133G_T178F
Change in KD of H2L2 Fab vs wild type, -(log(KD design)-log(KD wt)) [7]: -0.02 log units | Kd [8]: 8.46 nM
